Results taken from paper PMC8943916.

Molecular target: TIM (the TIM-EGFP-LacI bait of the FRAP experiment, not named)
Assay: FRAP

FRAP half-life: 14.9 s
B1: TagRFP-PPP1R10-TND (domain or fragment)
chain: KLLNNWLTYSKTTNNIPLLQQILLTLQHLPLTVDHLKQNNTAKLVKQLSKSSEDEELRKLASVLVSDWMAVIRSQ
